Data taken from EP3470428A1 (Numab Innovation AG, dated 2019).
Where “and” joins values, the source holds several entries; their conditions need not be identical. Identical values can stand only once. Like-named read-outs stand apart in the source and are kept apart here.

Experiments:
[1] = target: T1, human PD-L1 expressed on cells (human, UniProt Q9NZQ7 19-290); test: cell-based or functional assay
[2] = target: T1, human PD-L1 expressed on cells; test: cell-based or functional assay; remark: listed apart in the source
[3] = target: human PD-L1-Fc chimeric protein (human, UniProt Q9NZQ7 19-239); test: SPR (Biacore T200); PD-L1-Fc captured by anti-human Fc
biotinylated human PD-L1 [4] = target: T2, biotinylated human PD-L1 (human, UniProt Q9NZQ7 19-238, limits assumed, biotinylated); test: competition ELISA; coated human PD-1 as competitor; biotinylated human PD-L1 pre-incubated with inhibitor
T2 construct: also called biotinylated PD-L1

biotinylated human PD-L1 [5] = target: T2, biotinylated human PD-L1; test: competition ELISA; coated human B7.1 as competitor; biotinylated PD-L1 pre-incubated with inhibitor
[6] = target: T3, human CD137 expressed on cells (human, UniProt Q07011 24-255); test: cell-based or functional assay
[7] = target: T3, human CD137 expressed on cells; test: cell-based or functional assay; remark: listed apart in the source
human serum albumin = target: T4, human serum albumin (human, UniProt P02768 25-609); test: SPR (Biacore T200); SA amine-coupled; pH 5.5
T4 construct: Amine-coupled to a CM5 chip; assay at pH 5.5; also called HSA; human SA

[8] = target: T3, human CD137 expressed on cells; test: cell-based or functional assay; remark: listed apart in the source
[9] = target: T3, human CD137 expressed on cells; test: cell-based or functional assay; remark: listed apart in the source
[10] = target: T3, human CD137 expressed on cells; test: cell-based or functional assay; remark: listed apart in the source
[11] = target: T3, human CD137 expressed on cells; test: cell-based or functional assay; remark: listed apart in the source
[12] = target: T3, human CD137 expressed on cells; test: cell-based or functional assay; remark: listed apart in the source
[13] = target: T3, human CD137 expressed on cells; test: cell-based or functional assay; remark: listed apart in the source
[14] = target: T3, human CD137 expressed on cells; test: cell-based or functional assay; remark: listed apart in the source
[15] = target: T3, human CD137 expressed on cells; test: cell-based or functional assay; remark: listed apart in the source

Binder | IC50 (ng/ml), neutralization of PD-L1/PD-1 interaction, NFAT-luciferase reporter gene assay [1] | IC50 (biotinylated human PD-L1 [4]) | IC50 (biotinylated human PD-L1 [5]) | EC50 in ng/ml, CD137 activation, NFkB-luciferase Jurkat reporter assay, PD-L1 expressing CHO cells, 24h, + HSA [6] | EC50 in ng/ml, CD137 activation, NFkB-luciferase Jurkat reporter assay, PD-L1 expressing CHO cells, 6h, + HSA [7] | binding result [3] | binding result (human serum albumin) | EC50 in ng/ml, CD137 activation, NFkB-luciferase Jurkat reporter assay, CHO-PD-L1 cells [9] | EC50 in ng/ml, CD137 activation, NFkB-luciferase Jurkat reporter assay, CHO-PD-L1 cells [10] | EC50 in ng/ml, CD137 activation, NFkB-luciferase Jurkat reporter assay, HCC827 cells stimulated with IFNg [12] | EC50 in ng/ml, CD137 activation, NFkB-luciferase Jurkat reporter assay, PD-L1 expressing CHO cells, 24h [6] | EC50 in ng/ml, CD137 activation, NFkB-luciferase Jurkat reporter assay, PD-L1 expressing CHO cells, 6h [7] | EC50 in ng/ml, CD137 activation, NFkB-luciferase Jurkat reporter assay, HCC827 with IFNy stimulation, 24h [13] | EC50 in ng/ml, CD137 activation, NFkB-luciferase Jurkat reporter assay, HCC827 without IFNy stimulation, 24h [13] | EC50 in ng/ml, CD137 activation, NFkB-luciferase Jurkat reporter assay, HCC827 cells without IFNg [14] | max. activation (%), NF-kB reporter gene, CHO-PD-L1; HSA: no [8] | further results
PRO997 (anti-PD-L1 scFv, CDR set of clone 37-20-B03 grafted on a VH4 framework) (scFv) DIQMTQSPSSLSASVGDRVTITCQASQSIGTYLAWYQQKPGKAPKLLIYRAFILASGVPSRFSGSGSGTDFTLTISSLQPEDFATYYCQSNFYSDSTTIGPNAFGTGTKVTVLGGGGGSGGGGSGGGGSGGGGSQVQLQESGPGLVKPSETLSLTCKVSGFSFNSDYWIYWIRQPPGKGLEWIGSIYGGSSGNTQYASWAQGRVTISVDSSKNQFSLKLSSVTAADTAVYYCARGYVDYGGATDLWGQGTLVTVSS | 11.1 ng/mL | 0.0005 µg/mL | 0.00636 µg/mL |  |  |  |  |  |  |  |  |  |  |  |  |  | EC50 in ng/ml, IL-2 secretion, PBMC stimulated with SEA [2]: 40.9 ng/mL; fold higher affinity against the STR graft of clone 33-03-G02 [3]: ~2 fold
PRO1058: 38_27_C05 sc01 scDb-i/33-03-G02 sc01 scDb-o/mxr HSA (23-13-A01-sc03, sk17sh4) (other, Trispecific scTriabody (scDb-scFv)) DIQMTQSPSSLSASVGDRVTITCQASQSINDYLAWYQQKPGKAPKLLIYKASTLASGVPSRFSGSGSGTDFTLTISSLQPEDFATYYCQQGYIITDIDNVFGTGTKVTVLGGGGGSQVQLQESGPGLVKPSETLSLTCKVSGFSFNNDYDMCWIRQPPGKGLEWIGCIDTGDGSTYYASWAKGRVTISVDSSKNQFSLKLSSVTAADTAVYYCAREAASSSGYGMGYFDLWGQGTLVTVSSGGGGSGGGGSGGGGSGGGGSIQMTQSPSSLSASVGDRVTITCQSSQSVYDNNWLAWYQQKPGKAPKLLIYRASNLASGVPSRFSGSGSGTDFTLTISSLQPEDFATYYCQGTYLSSNWYWAFGTGTKVTVLGGGGGSQVQLQESGPGLVKPSETLSLTCKVSGFSFSSGYDMCWIRQPPGKGLEWIGCVVAGSVDITYYASWAKGRVTISVDSSKNQFSLKLSSVTAADTAVYYCARKDAYSDAFNLWGQGTLVTVSSGGGGSGGGGSVVMTQSPSSLSASVGDRVTITCQASQIISSRSAWYQQKPGQPPKLLIYQASKLASGVPSRFSGSGSGTDFTLTISSLQPEDFATYYCQCTYIDSNFGAFGGGTKLTVLGGGGGSGGGGSGGGGSGGGGSEVQLVESGGGLVQPGGSLRLSCAASGFSFSSSYWICWVRQAPGKGLEWVGCVFTGDGTTYYASWAKGRFTISRDNSKNTVYLQMNSLRAEDTATYFCARPVSVYYYGMDLWGQGTLVTVSS |  |  |  | 121 ng/mL | 70.9 ng/mL | binds | binds |  |  |  |  |  |  |  |  |  | max. activation (%), NF-kB reporter gene, CHO-PD-L1; HSA: yes, 24h [8]: 36.2%
PRO966 (= PRO1052): 38_27_C05 sc01 scDb-i/33-03-G02 sc01 scDb-o/19-01-H04-sc03 scFv (other, Trispecific scTriabody (scDb-scFv)) DIQMTQSPSSLSASVGDRVTITCQASQSINDYLAWYQQKPGKAPKLLIYKASTLASGVPSRFSGSGSGTDFTLTISSLQPEDFATYYCQQGYIITDIDNVFGTGTKVTVLGGGGGSQVQLQESGPGLVKPSETLSLTCKVSGFSFNNDYDMCWIRQPPGKGLEWIGCIDTGDGSTYYASWAKGRVTISVDSSKNQFSLKLSSVTAADTAVYYCAREAASSSGYGMGYFDLWGQGTLVTVSSGGGGSGGGGSGGGGSGGGGSIQMTQSPSSLSASVGDRVTITCQSSQSVYDNNWLAWYQQKPGKAPKLLIYRASNLASGVPSRFSGSGSGTDFTLTISSLQPEDFATYYCQGTYLSSNWYWAFGTGTKVTVLGGGGGSQVQLQESGPGLVKPSETLSLTCKVSGFSFSSGYDMCWIRQPPGKGLEWIGCVVAGSVDITYYASWAKGRVTISVDSSKNQFSLKLSSVTAADTAVYYCARKDAYSDAFNLWGQGTLVTVSSGGGGSGGGGSIQMTQSPSSLSASVGDRVTITCQSSESVYSNNQLSWYQQKPGQPPKLLIYDASDLASGVPSRFSGSGSGTDFTLTISSLQPEDFATYYCAGGFSSSSDTAFGGGTKLTVLGGGGGSGGGGSGGGGSGGGGSEVQLVESGGGLVQPGGSLRLSCAASGFSLSSNAMGWVRQAPGKGLEYIGIISVGGFTYYASWAKGRFTISRDNSKNTVYLQMNSLRAEDTATYFCARDRHGGDSSGAFYLWGQGTLVTVSS |  |  |  |  |  | binds | binds |  |  |  |  |  |  |  |  |  | 
PRO885: 38-02-A04 sc01 scDb-i/33-03-G02 sc01 scDb-o (bispecific antibody, anti-PD-L1xCD137 scDb, CDR grafts of both domains) DIQMTQSPSSLSASVGDRVTITCQASQSINDYLAWYQQKPGKAPKLLIYKASTLASGVPSRFSGSGSGTDFTLTISSLQPEDFATYYCQQGYIITDIDNVFGTGTKVTVLGGGGGSQVQLQESGPGLVKPSETLSLTCKVSGFSFSNSYWICWIRQPPGKGLEWIGCTFVGSSDSTYYANWAKGRVTISVDSSKNQFSLKLSSVTAADTAVYYCARHPSDAVYGYANNLWGQGTLVTVSSGGGGSGGGGSGGGGSGGGGSIQMTQSPSSLSASVGDRVTITCQASQSINNVLAWYQQKPGKAPKLLIYRASTLASGVPSRFSGSGSGTDFTLTISSLQPEDFATYYCQSSYGNYGDFGTGTKVTVLGGGGGSQVQLQESGPGLVKPSETLSLTCKVSGFSFSSGYDMCWIRQPPGKGLEWIGCVVAGSVDITYYASWAKGRVTISVDSSKNQFSLKLSSVTAADTAVYYCARKDAYSDAFNLWGQGTLVTVSS | 137 ng/mL | 0.00835 µg/mL | 0.0122 µg/mL | 14.8 ng/mL | 7.92 ng/mL |  |  | 11.7 ng/mL | 5.13 ng/mL and 4.86 ng/mL and 6.3 ng/mL | 9.27 ng/mL and 8.88 ng/mL and 9.23 ng/mL | 13.8 ng/mL | 7.84 ng/mL | 7.51 ng/mL | 9.52 ng/mL | 11.5 ng/mL and 13.1 ng/mL and 13 ng/mL | 499% | EC50 (ng/ml), IL-2 secretion by PBMC; anti-CD3 1 ug/ml, 50000 PD-L1 expressing CHO cells/well [11]: 12.8 ng/mL; EC50 (ng/ml), IL-2 secretion by PBMC; anti-CD3 1 ug/ml, 100000 PD-L1 expressing CHO cells/well [11]: 86.2 ng/mL; EC50 (ng/ml), IL-2 secretion by PBMC; anti-CD3 1 ug/ml, 200000 PD-L1 expressing CHO cells/well [11]: 80.6 ng/mL; EC50 (ng/ml), IL-2 secretion by PBMC; anti-CD3 2 ug/ml, 50000 PD-L1 expressing CHO cells/well [11]: 52 ng/mL; EC50 (ng/ml), IL-2 secretion by PBMC; anti-CD3 2 ug/ml, 100000 PD-L1 expressing CHO cells/well [11]: 41.9 ng/mL; EC50 (ng/ml), IL-2 secretion by PBMC; anti-CD3 2 ug/ml, 200000 PD-L1 expressing CHO cells/well [11]: 30.1 ng/mL; EC50 in ng/ml, IL-2 secretion, PBMC stimulated with SEA [15]: 39.9 ng/mL; max. activation (%), NF-kB reporter gene, HCC827 +IFNg; HSA: no [8]: 134%; max. activation (%), NF-kB reporter gene, HCC827 -IFNg; HSA: no [8]: 111%
Urelumab (antibody, V domains shown) VH: QVQLQQWGAGLLKPSETLSLTCAVYGGSFSGYYWSWIRQSPEKGLEWIGEINHGGYVTYNPSLESRVTISVDTSKNQFSLKLSSVTAADTAVYYCARDYGPGNYDWYFDLWGRGTLVTVSS VL: EIVLTQSPATLSLSPGERATLSCRASQSVSSYLAWYQQKPGQAPRLLIYDASNRATGIPARFSGSGSGTDFTLTISSLEPEDFAVYYCQQRSNWPPALTFGGGTKVEIK |  |  |  | 78.2 ng/mL | 77.7 ng/mL |  |  | 79.1 ng/mL | 79.5 ng/mL and 104 ng/mL and 86.5 ng/mL | 114 ng/mL and 145 ng/mL and 108 ng/mL | 46.6 ng/mL | 56.5 ng/mL | 52.8 ng/mL | 47.5 ng/mL | 212 ng/mL and 110 ng/mL and 112 ng/mL |  | 
PRO951: 38-27-C05 sc02 scDb-i/33-03-G02 sc01 scDb-o (bispecific antibody, anti-PD-L1xCD137 scDb) DIQMTQSPSSLSASVGDRVTITCQASQSINDYLAWYQQKPGKAPKLLIYKASTLASGVPSRFSGSGSGTDFTLTISSLQPEDFATYYCQQGYIITDIDNVFGTGTKVTVLGGGGGSEVQLVESGGGLVQPGGSLRLSCAASGFSFNNDYDMCWVRQAPGKGLEWIGCIDTGDGSTYYASWAKGRFTISRDNSKNTVYLQMNSLRAEDTAVYYCAREAASSSGYGMGYFDLWGQGTLVTVSSGGGGSGGGGSGGGGSGGGGSIQMTQSPSSLSASVGDRVTITCQSSQSVYDNNWLAWYQQKPGKAPKLLIYRASNLASGVPSRFSGSGSGTDFTLTISSLQPEDFATYYCQGTYLSSNWYWAFGTGTKVTVLGGGGGSQVQLQESGPGLVKPSETLSLTCKVSGFSFSSGYDMCWIRQPPGKGLEWIGCVVAGSVDITYYASWAKGRVTISVDSSKNQFSLKLSSVTAADTAVYYCARKDAYSDAFNLWGQGTLVTVSS | 88.5 ng/mL | 0.0095 µg/mL | 0.0093 µg/mL |  |  |  |  | 33.7 ng/mL |  |  |  |  |  |  |  | 432% | 
